According to US12209135B2, “Anti-CD45 antibodies and conjugates thereof” (priority 2019, dated 2025):

Legend:
human CD45 ectodomain = molecular target: T1, human CD45 ectodomain (Homo sapiens, UniProt P08575); experiment: Biolayer interferometry (BLI, Octet) binding of immobilized IgG to purified CD45 ectodomain; settings: Table 2, Human CD45
T1 construct: purified human, rhesus or cynomolgus CD45 ectodomain
T1 sequence (P08575 26-577): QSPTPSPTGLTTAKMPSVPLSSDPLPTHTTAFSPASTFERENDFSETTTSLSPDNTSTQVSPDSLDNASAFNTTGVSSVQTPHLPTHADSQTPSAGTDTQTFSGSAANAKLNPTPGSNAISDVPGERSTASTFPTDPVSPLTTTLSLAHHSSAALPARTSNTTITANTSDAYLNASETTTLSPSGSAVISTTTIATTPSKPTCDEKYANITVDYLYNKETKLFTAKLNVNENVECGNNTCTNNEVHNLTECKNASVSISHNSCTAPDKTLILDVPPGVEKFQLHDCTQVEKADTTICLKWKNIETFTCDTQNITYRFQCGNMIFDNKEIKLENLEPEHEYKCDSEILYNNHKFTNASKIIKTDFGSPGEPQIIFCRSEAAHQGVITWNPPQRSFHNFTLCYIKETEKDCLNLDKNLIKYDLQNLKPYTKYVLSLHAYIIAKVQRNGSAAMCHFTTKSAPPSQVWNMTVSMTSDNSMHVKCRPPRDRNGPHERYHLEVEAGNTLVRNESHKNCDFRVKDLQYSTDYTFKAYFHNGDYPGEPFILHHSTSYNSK
Experimental: (§1) Antibody binding studies were performed at 25° C. in 1×PBS supplemented with 0.1% w/v bovine serum albumin with a Pall ForteBio Octet Red96 using biolayer interferometry (BLI).
(§2) The apparent monovalent affinity (KD), apparent association rate (KON), and apparent dissociation rate (KOFF) were determined by local full fitting with a 1:1 binding model as calculated by ForteBio data analysis software version 10 of each IgG to purified human, cynomolgus or rhesus CD45 ectodomain. […] Binding was confirmed using
Briefly, antibody binding studies were performed at 25° C. in 1×PBS supplemented with 0.1% w/v bovine serum albumin with a PALL FORTEBIO OCTET RED96 using biolayer interferometry (BLI). Each purified antibody was immobilized onto anti-human Fc biosensors (AHQ; PALL FORTEBIO 18-5001) and incubated with 100 nM of purified human or 300 nM of cynomolgus CD45 ectodomain.
(§3) The apparent monovalent affinity (KD), apparent association rate (KON), and apparent dissociation rate (KDIS or KOFF) were determined by local full fitting with a 1:1 binding model as calculated by FORTEBIO data analysis software version 10. […] Each of the selected humanized antibodies AbA, AbB, and AbC was able to cross react with human and cynomolgus CD45.

[1] = tested on: cynomolgus CD45 ectodomain; experiment: as above; settings: Table 2, Cynomolgus CD45
Experimental: as §1, §2
Briefly, antibody binding studies were performed at 25° C. in 1×PBS supplemented with 0.1% w/v bovine serum albumin with a PALL FORTEBIO OCTET RED96 using biolayer interferometry (BLI). […]
as §3

rhesus CD45 ectodomain = molecular target: T2, rhesus CD45 ectodomain (Macaca mulatta, UniProt A0A1D5R142); experiment: as above; settings: Table 2, Rhesus CD45
T2 construct: purified human, rhesus or cynomolgus CD45 ectodomain
T2 sequence (A0A1D5R142 26-581): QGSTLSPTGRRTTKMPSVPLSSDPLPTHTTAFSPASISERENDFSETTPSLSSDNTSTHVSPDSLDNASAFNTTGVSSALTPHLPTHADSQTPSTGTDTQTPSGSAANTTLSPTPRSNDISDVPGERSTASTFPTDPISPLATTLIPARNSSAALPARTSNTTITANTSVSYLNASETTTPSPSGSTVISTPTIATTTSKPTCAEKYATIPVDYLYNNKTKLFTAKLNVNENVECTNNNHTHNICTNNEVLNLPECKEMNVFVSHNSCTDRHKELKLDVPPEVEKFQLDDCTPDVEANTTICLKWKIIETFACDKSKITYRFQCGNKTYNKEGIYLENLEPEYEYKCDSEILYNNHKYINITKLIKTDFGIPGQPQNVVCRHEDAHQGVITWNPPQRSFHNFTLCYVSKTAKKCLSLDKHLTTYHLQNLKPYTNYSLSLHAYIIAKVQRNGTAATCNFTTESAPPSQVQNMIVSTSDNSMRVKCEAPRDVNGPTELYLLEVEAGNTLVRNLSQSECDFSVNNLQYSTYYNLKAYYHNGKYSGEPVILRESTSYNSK
Experimental: as §1
as §2, with “using […]” for “using”

[2] = Two-week thermal / pH stress stability by HIC and peptide mapping; type: physicochemical; settings: 4° C., 25° C., 40° C. for 15 days; high pH treatment
Experimental: A two-week stability assay was performed by incubating Ab3 and Ab4 at 4° C., 25° C., and 40° C. for 15 days, after which the antibodies were analyzed by […] (HIC). Briefly, 25 micrograms of the indicated antibody were injected onto a Tosoh TSKgel Phenyl-5PW 7.5 mm ID×7.5 cm 10-micron column (Catalog #07573) on a Waters ARC HPLC/UPLC system. […] This hydrophilic pre-peak was indicative of a potential site of post-translational modification (e.g., oxidation or deamidation). Peptide mapping was subsequently performed to identify which amino acids were modified in each antibody upon exposure to stress (high pH, low pH, and oxidative stress). The peptide mapping analysis identified a potential site of deamidation at an asparagine in CDR-L1 (N30 position) in response to high pH conditions (e.g., pH 8 or greater).
Accordingly, variants of Ab3 and Ab4 were generated in which the asparagine in CDR-L1 (e.g., at position 30B) was substituted with a serine. The resulting antibodies were named Ab7 and Ab5 respectively.

Chain of cynomolgus CD45 ectodomain (as listed by the source): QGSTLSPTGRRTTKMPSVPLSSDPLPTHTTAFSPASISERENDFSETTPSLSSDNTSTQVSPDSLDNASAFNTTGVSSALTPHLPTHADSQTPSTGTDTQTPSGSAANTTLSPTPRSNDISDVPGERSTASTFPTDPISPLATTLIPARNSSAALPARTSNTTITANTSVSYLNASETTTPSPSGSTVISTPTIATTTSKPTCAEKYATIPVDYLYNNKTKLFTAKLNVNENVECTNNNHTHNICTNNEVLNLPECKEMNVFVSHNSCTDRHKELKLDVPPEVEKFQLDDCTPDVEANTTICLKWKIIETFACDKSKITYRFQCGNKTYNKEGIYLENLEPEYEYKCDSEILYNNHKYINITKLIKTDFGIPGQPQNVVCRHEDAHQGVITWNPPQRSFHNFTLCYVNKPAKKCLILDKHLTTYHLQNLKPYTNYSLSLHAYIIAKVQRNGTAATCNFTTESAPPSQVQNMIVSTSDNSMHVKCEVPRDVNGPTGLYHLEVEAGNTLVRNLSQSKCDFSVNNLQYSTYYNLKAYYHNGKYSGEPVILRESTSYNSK

B1: Ab4: affinity matured human anti-CD45 IgG derived from Ab1; VH SEQ ID NO:31, VL SEQ ID NO:35 (antibody, V domains shown)
VH: EVQLVESGGGLVQPGGSLRLSCAASGFTFEAYSMNWVRQAPGKGLEWVSYISLSGATIHYADSVKGRFTISRDNAKNSLYLQMNSLRAEDTAVYYCARGGQYYYTSSDYGEVAFDIWGQGTMVTVSS
VL: DIVMTQSPLSLPVTPGEPASISCRSSQSLVSNGYNYLDWYLQKPGQSPQLLIYFGSSRASGVPDRFSGSGSGTDFTLKISRVEAEDVGVYYCMQRRRTPWSFGGGTKVEIK
Kdis (human CD45 ectodomain): 3.28e-06 s⁻¹
Kon (human CD45 ectodomain): 236000 M⁻¹ s⁻¹
Kdis [1]: 7.89e-05 s⁻¹
Kon [1]: 110000 M⁻¹ s⁻¹
Kd ([1]; 50 nM antigen (Ab1: 300 nM)): 0.721 nM
Kdis (rhesus CD45 ectodomain): 0.000102 s⁻¹
Kon (rhesus CD45 ectodomain): 118000 M⁻¹ s⁻¹
Kd (rhesus CD45 ectodomain; 50 nM antigen (Ab1: 300 nM)): 0.867 nM
HIC hydrophilic pre-peak (deamidated species) [2]: hydrophilic pre-peak that increased as a function of thermal stress
